Measured values as given in the nanobody polyreactivity screen of Harvey et al. (2022).

Experiment: yeast display, Sf9 membrane polyspecificity reagent, FACS + sequencing; frameworks hold sequencing errors
Method in brief: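 Genes from sorted yeast were amplified by colony PCR, read by MiSeq 2 × 250 sequencing and filtered on CDR length. These cells carried a synthetic nanobody library in Saccharomyces cerevisiae BJ5465 and were sorted by FACS into low and high (top ~1%) gates on anti-HA and streptavidin fluorescence. Polyreactivity is labelled according to the gate of origin.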

Sequence | polyreactivity (PSR sort gate)
QVQLVESGGGLVQAGGSLRLSCAASGRIFNYYDMGWYRQAPGKERELVAAISSGGTTYYADSVKGRFTISRDNAKNTVYLQMNCLKREDTAVYFCASYYTPQRLRSGKFDYWGQGTQVTVST | high polyreactivity
QVQLVESGGGLVQAGGSLRLSCAASGRIFPANAMGWYRQAPGKERELVAGITWRGDSTYYADSVKGRFTISRDNAKNTVYLQMNSLKPEDTAVYYCAATFRYTKLYYWGHGTQVTVSS | low polyreactivity
QVQLVESGGGLVQAGGSLRLSCAASGRIFPANVMGWYRQAPGKERELVATIDNGGGTYYADSVKGRFTISRDNAKNTVYLQMNSLKPEDTAVYYCARDRHVRWGLKMDYWGQGTQVTVSS | low polyreactivity
QVQLVESGGGLVQAGGSLRLSCAASGRIFPAYVMGWYRQAPGKERQLVATIDNGGGTYFADSVKGRFTISRDNAKNTVYLQMNRLKPVETAVYYCARDRHVRWGLNMDYWGQGTQVTVSS | low polyreactivity
QVQLVESGGGLVQAGGSLRLSCAASGRIFPDNTMGGYRQAPGKERELVAVITYSGGSTYYADSVKGRFTISRDNAKNTVYLKMNSLKPEDTAVYYCAARDYYIWFAEVYYWGQGTQVSVSS | low polyreactivity
QVQLVESGGGLVQAGGSLRLSCAASGRIFPEYAMGWYRQAPGKERELVAAITSGGHYADSVKGRFTISRDNAKNTVYLQINSLKPEDTAVYYCSALNVYGSADVTTLEMDYWGQGTLVTVSS | low polyreactivity
QVQLVESGGGLVQAGGSLRLSCAASGRIFPFNDMGWYREAPGKEREFVADISDNGGSTYADSVKGRFTISRDNAKNTVYLQMNSLKPEDTAVYYCNAVYTSYRGGYYYWGQGTQGTVSS | low polyreactivity
QVQLVESGGGLVQAGGSLRLSCAASGRIFPFYAMGWYRQAPGKERELVAAISTRGGSTYYADSVKGRFTISRDNAKNTVYLQMNSLKPADTAVYYCAADVQAVGYDYWGQGTQVTVSS | high polyreactivity
QVQLVESGGGLVQAGGSLRLSCAASGRIFPGYAMGWYRQAPGKERELVAAISSRGGSTYYADSVKGRFTISRDNAKHTVYLQMNSLKPEDTAVYYCAAEPSWWNVFYPGYNYWGQGTQVTVSS | high polyreactivity
QVQLVESGGGLVQAGGSLRLSCAASGRIFPGYAMGWYRQAPGKERELVAAISTNGGRTYYADSVKGRFTISRDNAKNTVYLQMNSLKPEDTAVYYCNAARAVYTQKRFDSWGQGTQVTVSS | high polyreactivity
QVQLVESGGGLVQAGGSLRLSCAASGRIFPHNAMGWYRQAPGKERELVAAITKSGDDTYYADSVKGRFTISRDNAKNTVYLQMNSLKPEDTAVYYCAAYLSWYDYWGQGTQVTVSS | low polyreactivity
QVQLVESGGGLVQAGGSLRLSCAASGRIFPINAMGWYRQAPGKERELVAAISGDGGDTYYADSVKGRFTISRDNAKNTVYLQMNSLKPEDTAVYYCAADALGYDYYYWGQGTQVTVSS | low polyreactivity
QVQLVESGGGLVQAGGSLRLSCAASGRIFPINVMGWYRQAPGKERELVAAISGRGGSTYYADSVKGRFTISRDNAKNTVYLQMNSLKPEDTAVYYCAARSPYRYYYWGQGTQVTVSS | high polyreactivity
QVQLVESGGGLVQAGGSLRLSCAASGRIFPKYAMGWYRHAPGTERELVGAISGSSGSTYYADSVKGRFTISRDNAKNTVYLQMNSLKPDDTAVYYCAARRYRISKTSGYCGQGTQVTVSS | high polyreactivity
QVQLVESGGGLVQAGGSLRLSCAASGRIFPKYAMGWYRQAPGKERELVAAITGIGTSTYYADSVKGRFTISRDNAKNTVYLQMNSLKPEDTAVYYCAADTWTIVDYGYWGQGTQVTVSS | low polyreactivity
QVQLVESGGGLVQAGGSLRLSCAASGRIFPLYAMGWSRQAPGKERELVAAITSSGGSTYYADSVKGRFTISRDNAKNTVYLQMNSLKPEDTAVYYCAADYSVYWLDYGYWGQGTLVTVSS | low polyreactivity

Sequence | polyreactivity (PSR sort gate)
QVQLVESGGGLVQAGGSLRLSCAASGRIFPLYDMGWYRQAPGKERELVAAISSGGTTYYADSVKGRFTISRDNAKNTVYLQMNSLKPEDTEVYYCARRPAQRWGRFDYWVQGTQVTVSS | low polyreactivity
QVQLVESGGGLVQAGGSLRLSCAASGRIFPRNAMGWYSPAPGKERELVAAITRAGSTYYADSVKGRFTISRDNAKNTVYLQLNSLKPEDTAVYYCNRQWHRDVYGHDYWGQGTQVTVSS | high polyreactivity
QVQLVESGGGLVQAGGSLRLSCAASGRIFPRNTMGWYRQAPGKERELVAAISTRGGSTYYADSVKGRSTISRDNAKNNVYLQMNSLKPEDTAVYYCAAGRRFPAIYSTGNYWGQGTQVTVSS | high polyreactivity
QVQLVESGGGLVQAGGSLRLSCAASGRIFPRNTMGWYRQAPGKEREMVAAISTRGGSTYYADSVKGRFTISRDNAQNTVYLEMNSLKPEDTAVDYSAAGRRFPAIYSTGNYWGQGTQVTVSS | high polyreactivity
QVQLVESGGGLVQAGGSLRLSCAASGRIFPRYAMGWYRQATGKERELVATISSGGSTYYADSVKGRFTISRDNAKNTVYLQMNSLKPEDTAVYYCAARKRPYTVINGMDYWGQGTQVTVSS | low polyreactivity
QVQLVESGGGLVQAGGSLRLSCAASGRIFPSYAMGWYRQAPGKERELVAAISSSGGRTYYADSVKGRFTISRDNAKNTVYLQMNSLKPEDTAVYYCAARWVQYGVRYDYWGQGTQVTVSS | high polyreactivity
QVQLVESGGGLVQAGGSLRLSCAASGRIFPSYAMGWYRQAPGKERELVAAITSSDSTYYADSVKGRFTISRDNAKNTVYLQMNSLKPEDTAVYYCAAAYSYSGWWWFGYWGQGTQVTVSS | high polyreactivity
QVQLVESGGGLVQAGGSLRLSCAASGRIFPSYDMGWYRQAPGKDRELVATISSRGDSTYYADSVKGRFTISRDNAKNTVYLQMNSLKPEDTAVYYCAAERPFWEYDYWGQGTQVTVSS | low polyreactivity
QVQLVESGGGLVQAGGSLRLSCAASGRIFPTNAMGWYRQAPGKERELVAAIPVSGGSTYYADSVKGRFTISRDNAKNTVYLQMNSLKPEDTAVYYCAADSSTYRFDYWGQGTQVTVSS | low polyreactivity
QVQLVESGGGLVQAGGSLRLSCAASGRIFPTNAMGWYRQAPGKERELVAAIPVSGGSTYYADSVKGRFTISRDNAKNTVYLQMNSLKPEDTAVYYCAVDDRASVGSRLDHWGQGTQVTVSS | low polyreactivity
QVQLVESGGGLVQAGGSLRLSCAASGRIFPTNAMGWYRQAPGKERELVASITRSGSTYYADSVKGRFTISRDNAKNTVYLQMNSLKPEDTAVYYCAKRYRYSVGWPVKNSAFGYWGQGTQVTVSS | low polyreactivity
QVQLVESGGGLVQAGGSLRLSCAASGRIFPTSTKGWYRQAPGKERELVAAITSGGTTYYADSVKGRVTISRDNAKNTVYLQMNSLKPEDTAVYYCAALRPRRGYYYWGQGTQVTVSS | high polyreactivity
QVQLVESGGGLVQAGGSLRLSCAASGRIFPVNAMGWYRQAPGKEREFVARISRRGGSTYYADSVKGRFTISRDYEKNTVYLQMNSLKPEDTAVYYCAAVSSRYSYDYWGQGTQVTVSS | high polyreactivity
QVQLVESGGGLVQAGGSLRLSCAASGRIFPVNTMGWYREAPGKERELVAAITSGGGTYYADSVKGRFTISRDNAKNTVYLQMNSLKPEDTAVYYCNAPEGRKPYDSWGQGTQVTVSS | low polyreactivity
QVQLVESGGGLVQAGGSLRLSCAASGRIFPVNTMGWYRQAQGKVRELVAAITSGGGTYYADSVKGRFTISRDNAKNTVYLQMNSLKPEDTAVYYCNAPEGRKPYDSWGQGTQVTVSS | low polyreactivity
QVQLVESGGGLVQAGGSLRLSCAASGRIFPWNTMGWYRQAPGKERELVAGINNGDRTYYADSVKGRFTISRDNAKNTVYLQMNSLKPEDTAVYYCAVDTWYFLFQYGYYQEGDYWGQGTQVTVSS | low polyreactivity
